Test results published in article doi:10.1101/2023.11.01.565136.

Target: T1, Full-length human E6AP (E6-associated protein) (human), Q05086
T1 chain: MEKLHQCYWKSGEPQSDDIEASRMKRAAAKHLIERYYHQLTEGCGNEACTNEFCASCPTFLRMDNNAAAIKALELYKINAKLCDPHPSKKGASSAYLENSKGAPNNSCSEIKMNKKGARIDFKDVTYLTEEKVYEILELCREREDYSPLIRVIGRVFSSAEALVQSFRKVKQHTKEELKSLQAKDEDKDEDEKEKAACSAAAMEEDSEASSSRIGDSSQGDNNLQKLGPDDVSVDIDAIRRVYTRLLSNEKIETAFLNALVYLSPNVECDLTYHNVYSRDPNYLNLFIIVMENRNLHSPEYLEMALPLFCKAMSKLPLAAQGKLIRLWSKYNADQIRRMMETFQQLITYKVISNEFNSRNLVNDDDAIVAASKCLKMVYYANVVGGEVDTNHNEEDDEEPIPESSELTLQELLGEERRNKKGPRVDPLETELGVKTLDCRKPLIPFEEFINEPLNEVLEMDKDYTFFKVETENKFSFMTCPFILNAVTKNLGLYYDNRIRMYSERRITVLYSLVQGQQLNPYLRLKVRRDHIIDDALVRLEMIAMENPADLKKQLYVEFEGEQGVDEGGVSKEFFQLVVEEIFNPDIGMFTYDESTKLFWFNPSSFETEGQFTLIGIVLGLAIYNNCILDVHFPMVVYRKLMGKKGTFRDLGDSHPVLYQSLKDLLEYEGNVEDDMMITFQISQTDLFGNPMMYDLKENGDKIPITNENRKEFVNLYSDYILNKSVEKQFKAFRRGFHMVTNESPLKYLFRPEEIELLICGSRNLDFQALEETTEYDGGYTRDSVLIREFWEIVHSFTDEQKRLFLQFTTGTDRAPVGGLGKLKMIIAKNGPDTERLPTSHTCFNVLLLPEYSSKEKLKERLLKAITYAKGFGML
Assay: mass photometry
Conditions: remark: other sources report otherwise

stoichiometry N: 2
B1: Full-length human E6AP (E6-associated protein), Q05086 1-875 (enzyme)
chain: T1 chain
